# Like-named read-outs stand apart in the source and are kept apart here.
# Columns and labels:
# [1] = molecular target: T1, rat TIMP-1 (rat, UniProt P30120 24-217); assay: BIAcore SPR, Fab
# T1 construct: Immobilised on BIAcore chip or ELISA plate; in solution in the protease assay
# [2] = molecular target: T1, rat TIMP-1; assay: cell-based or functional assay
# [3] = molecular target: T1, rat TIMP-1; assay: cell-based or functional assay; remark: listed apart in the source
# [4] = molecular target: T2, human TIMP-1 (human, UniProt P01033 24-207); assay: cell-based or functional assay
# [5] = molecular target: T2, human TIMP-1; assay: cell-based or functional assay; remark: listed apart in the source
# [6] = molecular target: T2, human TIMP-1; assay: BIAcore SPR, Fab
# [7] = molecular target: T2, human TIMP-1; assay: cell-based or functional assay; remark: listed apart in the source
# [8] = molecular target: T2, human TIMP-1; assay: BIAcore SPR, Fab, monovalent fit
# [9] = molecular target: T2, human TIMP-1; assay: BIAcore SPR, Fab, monovalent fit; remark: listed apart in the source
# T1 sequence (P30120 24-217 limits assumed): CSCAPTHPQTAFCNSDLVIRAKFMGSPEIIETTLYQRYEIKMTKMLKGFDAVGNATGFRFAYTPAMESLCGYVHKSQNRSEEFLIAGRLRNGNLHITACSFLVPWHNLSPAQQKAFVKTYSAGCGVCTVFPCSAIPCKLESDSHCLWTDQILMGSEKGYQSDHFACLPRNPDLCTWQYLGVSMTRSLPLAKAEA
binder,measurement,setting,value
"MS-BW-17-1 Fab (Fab, V domains shown, Fab; LCDR3-optimised from MS-BW-17) VH: QVQLVQSGAEVKKPGESLKISCKGSGYSFTSYWIGWVRQMPGKGLEWMGIIYPGDSDTRYSPSFQGQVTISADKSISTAYLQWSSLKASDTAMYYCARLTNYFDSIYYDHWGQGTLVTVSS VL: DIALTQPASVSGSPGQSITISCTGTSSDVGGYNYVSWYQQHPGKAPKLMIYDVSNRPSGVSNRFSGSKSGNTASLTISGLQAEDEADYYCQAFDVAPNGKVFGGGTKLTVLG",improvement factor (affinity) over parental clone,[1],16.3 fold
"MS-BW-17-2 (Fab, V domains shown) VH: QVQLVQSGAEVKKPGESLKISCKGSGYSFTSYWIGWVRQMPGKGLEWMGIIYPGDSDTRYSPSFQGQVTISADKSISTAYLQWSSLKASDTAMYYCARLTNYFDSIYYDHWGQGTLVTVSS VL: DIALTQPASVSGSPGQSITISCTGTSSDVGGYNYVSWYQQHPGKAPKLMIYDVSNRPSGVSNRFSGSKSGNTASLTISGLQAEDEADYYCQAFAVMPNVEVFGGGTKLTVLG",improvement factor (functional activity in the protease assay) over parental clone,[2],10 fold
"MS-BW-63 (Fab, V domains shown) VH: QVQLVQSGAEVKKPGESLKISCKGSGYSFTSYWIGWVRQMPGKGLEWMGIIYPGDSDTRYSPSFQGQVTISADKSISTAYLQWSSLKASDTAMYYCARILTGHVLLFDYWGQGTLVTVSS VL: DIALTQPASVSGSPGQSITISCTGTSSDVGGYNYVSWYQQHPGKAPKLMIYDVSNRPSGVSNRFSGSKSGNTASLTISGLQAEDEADYYCQSDNPYLVFGGGTKLTVLG",IC50 in rat protease assay,[3],20000 µM
"MS-BW-44 (Fab, V domains shown) VH: not shown VL: DIALTQPASVSGSPGQSITISCTGTSSDVGGYNYVSWYQQHPGKAPKLMIYDVSNRPSGVSNRFSGSKSGNTASLTISGLQAEDEADYYCQSYDFVRFMVFGGGTKLTVLG",improvement factor (IC50) over MS-BW-3,[4],2.75 fold
"MS-BW-44-2-4 (Fab, V domains shown) VH: QVQLVESGGGLVQPGGSLRLSCAASGFTFSSYAMSWVRQAPGKGLEWVSGISGNGVLIFYADSVKGRFTISRDNSKNTLYLQMNSLRAEDTAVYYCARGLMDYWGQGTLVTVSS VL: DIALTQPASVSGSPGQSITISCTGTSSDVGGYNYVSWYQQHPGKAPKLMIYDVSNRPSGVSNRFSGSKSGNTASLTISGLQAEDEADYYCQSYDFVRFMVFGGGTKLTVLG",ID50 in human protease assay (modified assay),[5],0.0002 µM
"MS-BW-44-2-16 (Fab, V domains shown) VH: QVQLVESGGGLVQPGGSLRLSCAASGFTFSSYAMSWVRQAPGKGLEWVSGISGNGVLIFYADSVKGRFTISRDNSKNTLYLQMNSLRAEDTAVYYCARWFDVWGQGTLVTVSS VL: DIALTQPASVSGSPGQSITISCTGTSSDVGGYNYVSWYQQHPGKAPKLMIYDVSNRPSGVSNRFSGSKSGNTASLTISGLQAEDEADYYCQSYDFVRFMVFGGGTKLTVLG",ID50 in human protease assay (modified assay),[5],0.0003 µM
"MS-BW-44-2-15 (Fab, V domains shown) VH: QVQLVESGGGLVQPGGSLRLSCAASGFTFSSYAMSWVRQAPGKGLEWVSGISGNGVLIFYADSVKGRFTISRDNSKNTLYLQMNSLRAEDTAVYYCARWFDHWGQGTLVTVSS VL: DIALTQPASVSGSPGQSITISCTGTSSDVGGYNYVSWYQQHPGKAPKLMIYDVSNRPSGVSNRFSGSKSGNTASLTISGLQAEDEADYYCQSYDFVRFMVFGGGTKLTVLG",ID50 in human protease assay (modified assay),[5],0.0002 µM
"MS-BW-44-6 (Fab, V domains shown, Fab) VH: QVQLVESGGGLVQPGGSLRLSCAASGFTFNSYAMSWVRQAPGKGLEWVSVISGNGSNTYYADSVKGRFTISRDNSKNTLYLQMNSLRAEDTAVYYCARFLDIWGQGTLVTVSS VL: DIALTQPASVSGSPGQSITISCTGTSSDVGGYNYVSWYQQHPGKAPKLMIYDVSNRPSGVSNRFSGSKSGNTASLTISGLQAEDEADYYCQSYDFVRFMVFGGGTKLTVLG",affinity gain factor (Kd) over MS-BW-44,[6],5 fold
same,gain factor (IC50) over MS-BW-44,[4],10 fold
same,ID50 in human protease assay (modified assay),[5],0.0002 µM
"MS-BW-44-2 (Fab, V domains shown, Fab) VH: QVQLVESGGGLVQPGGSLRLSCAASGFTFSSYAMSWVRQAPGKGLEWVSGISGNGVLIFYADSVKGRFTISRDNSKNTLYLQMNSLRAEDTAVYYCARFLDIWGQGTLVTVSS VL: DIALTQPASVSGSPGQSITISCTGTSSDVGGYNYVSWYQQHPGKAPKLMIYDVSNRPSGVSNRFSGSKSGNTASLTISGLQAEDEADYYCQSYDFVRFMVFGGGTKLTVLG",affinity gain factor (Kd) over MS-BW-44,[6],5 fold
same,gain factor (IC50) over MS-BW-44,[4],5 fold
same,ID50 in human protease assay (modified assay),[5],0.0004 µM
"MS-BW-44-6-1 (Fab, V domains shown) VH: QVQLVESGGGLVQPGGSLRLSCAASGFTFNSYAMSWVRQAPGKGLEWVSVISGNGSNTYYADSVKGRFTISRDNSKNTLYLQMNSLRAEDTAVYYCARFLDIWGQGTLVTVSS VL: DIALTQPASVSGSPGQSITISCTGTSSDVGGYNYVSWYQQHPGKAPKLMIYDVSNRPSGVSNRFSGSKSGNTASLTISGLQAEDEADYYCQSYDFIRFMVFGGGTKLTVLG",ID50 in human protease assay (modified assay),[5],0.0002 µM
"MS-BW-3 (Fab, V domains shown) VH: not shown VL: DIALTQPASVSGSPGQSITISCTGTSSDVGGYNYVSWYQQHPGKAPKLMIYDVSNRPSGVSNRFSGSKSGNTASLTISGLQAEDEADYYCQSYDFLRFSVFGGGTKLTVL",IC50 in human protease assay,[7],0.011 µM
same,Kd,[8],0.013 µM
same,Kd,[9],0.013 µM
